The values below come from paper PMC8857464.

Substrate in this series: C[C@H](N)C(=O)O
The experiment in a line: purified protein. As to conditions: nonoxidized enzyme (no H2O2), amino acid activation, 2 mM ATP, 2 mM PPi, 10 mM MgCl2, pH 7.2, 37 °C.

B1: AlaRS (Escherichia coli K-12) (protein)
chain: SKSTAEIRQAFLDFFHSKGHQVVASSSLVPHNDPTLLFTNAGMNQFKDVFLGLDKRNYSRATTSQRCVRAGGKHNDLENVGYTARHHTFFEMLGNFSFGDYFKHDAIQFAWELLTSEKWFALPKERLWVTVYESDDEAYEIWEKEVGIPRERIIRIGDNKGAPYASDNFWQMGDTGPCGPCTEIFYDHGDHIWGGPPGSPEEDGDRYIEIWNIVFMQFNRQADGTMEPLPKPSVDTGMGLERIAAVLQHVNSNYDIDLFRTLIQAVAKVTGATDLSNKSLRVIADHIRSCAFLIADGVMPSNENRGYVLRRIIRRAVRHGNMLGAKETFFYKLVGPLIDVMGSAGEDLKRQQAQVEQVLKTEEEQFARTLERGLALLDEELAKLSGDTLDGETAFRLYDTYGFPVDLTADVCRERNIKVDEAGFEAAMEEQRRRAREASGFGADYNAMIRVDSASEFKGYDHLELNGKVTALFVDGKAVDAINAGQEAVVVLDQTPFYAESGGQVGDKGELKGANFSFAVEDTQKYGQAIGHIGKLAAGSLKVGDAVQADVDEARRARIRLNHSATHLMHAALRQVLGTHVSQKGSLVNDKVLRFDFSHNEAMKPEEIRAVEDLVNTQIRRNLPIETNIMDLEAAKAKGAMALFGEKYDERVRVLSMGDFSTELCGGTHASRTGDIGLFRIISESGTAAGVRRIEAVTGEGAIATVHADSDRLSEVAHLLKGDSNNLADKVRSVLERTRQLEKELQQLKEQAAAQESANLSSKAIDVNGVKLLVSELSGVEPKMLRTMVDDLKNQLGSTIIVLATVVEGKVSLIAGVSKDVTDRVKAGELIGMVAQQVGGKGGGRPDMAQAGGTDAAALPAALASVKGWVSAKLQ
Usually Km stands for the concentration of substrate that gives half-maximal velocity. For orientation: kcat means the number of substrate molecules converted per active site and unit of time at saturation. One may read the kcat/Km as the turnover number divided by the Michaelis constant. On to B1, for which the Km stood at 329 ± 84.6 µM, the kcat is 16 s⁻¹ and the kcat/Km stood at 48300 M⁻¹ s⁻¹.
